Results published in the supplement of paper PMC10567573.

B1: OR3A1 (parent)
chain: PMYFFLGNLSVLDVGCISVTVPSM
B2: RTP4 (parent)
chain: AFGWFRCSSCQRSWASAQVQILCH

Variants of: B1
Experiment: protein stability index of a GFP-peptide fusion (GPS, HEK-293T) (PSI 1-6); higher = more stable
Conditions: c terminus: a fixed tail appended
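Further: lentivirally expressed fusions sorted by FACS into six bins by GFP to DsRed ratio, PSI derived from sequencing read proportions per bin multiplied by bin number.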

Protein stability index: each site, then its substitutions
L12: F 2.22, S 1.53, Y 3.05, M 1.62, H 2.78, A 2.37, D 3.05, T 4.2
V14: A 3.36, H 2.23, P 4.21
N8: G 2.71, F 2.06
Y3: T 4.47, H 3.35, F 2.74, C 4.31
M24: F 3.27, V 3.3, C 2.27, P 3.41, N 3.98, Y 2.58, A 3.27
G15: D 3.7, K 2.02, R 3.7, I 2.83, T 2.71, Y 1.93, H 3.73, S 2.12, F 2.94, W 2.87, N 2.63
V19: C 3.96, F 3.66, W 1.96, D 3.51, H 2.77, L 2.42, P 2.55, E 1.14, Q 3.27
V11: T 2.86, N 2.23, I 3.56, R 3.13, L 2.58, E 3.18
P22: I 3.76, T 2.38, W 3.15, V 2.1, E 3.69, Q 3.27
L6: Q 2.67, M 1.6, T 2.21, V 2.32, A 2.24, D 1.08
M2: G 2.32, L 4.31, K 3.24
V21: I 2.55, N 3.36, P 2.96, K 3.59, T 2.02, C 3.1
G7: Q 2.31, K 2.05, F 3.9
S18: P 2.5, R 3.87, E 2.7, D 2.66, I 3.52, G 2.33, K 2.67, F 1.68
P1: E 2.01, L 4.36, H 2.79, S 2.89, N 3.87, R 3.81, C 2.46, Y 2.1
S10: E 3.25, F 3.53, Y 3.38, W 3.31, L 2.05
I17: W 3.68, M 2.76, S 3.03, Y 1.63
S23: Q 3.82, K 2.42, F 1.78, A 3.86, I 2.86, D 4.24, Y 4.04, R 2.15, P 2.46
L9: R 3.52, T 2.59, K 2.86, C 3.93
T20: N 2.96, F 2.71, G 1.69, L 2.99, Y 3.62, Q 3.11, P 1.39
F5: D 2.06, H 2.64, P 1.79, S 3.9, E 1.46, V 2.3
C16: T 3.51, R 3.48, P 2.85, Q 2.99, E 2.33, D 3.14, M 3.08, K 2.14
D13: G 2.55, Y 2.55, C 4.05, L 3.26, K 2.74, F 3.38, M 2.35
F4: D 2.63, M 4.21, P 3.27, R 2.19

Variants of: B2
Experiment: as above
Conditions: c terminus: a fixed tail appended

Protein stability index of substitutions, site by site:
F5: I 2.35, G 2.57, Q 2.99, Y 4
Q11: E 1.88, Y 4.15, P 2.27, I 3.81, N 2.49, V 4.38, H 2.43, T 3.55
R6: L 3.45, C 2.07, N 1.77, H 2.77, A 2.65, Q 2.12, I 3.19, F 1.93, Y 2.65
A1: T 2.12, K 3.61, E 1.79, W 2.44, Y 2.87, S 4.21, L 2.49, R 3.15, M 2.42
C23: F 2.59, M 3.79, T 1.93, H 1.84, S 1.8, N 2.21, I 4.29, L 2.78, R 1.49
S8: H 2.39, V 3.2
I21: R 1.72, F 2.39, A 1.68, N 1.68, G 1.49, C 3.07, H 2.27
F2: D 2.56, P 2.67, T 2.73
C7: D 3.61, L 4.23, Y 2.67, I 2.4, E 2.89, K 3.9, H 2.97
S16: N 2.77, R 2.79, K 2.9, G 1.75, T 1.95, A 2.73, I 2.64, D 2.46, F 2.12
A17: M 1.86, H 2.31, W 2.94, P 2.21, D 3.07, K 3.13, C 2.38, Y 2.43, N 1.65
C10: F 3.06, N 3.16
L22: C 1.4, W 2.17, P 3.05, N 2.66, M 1.32, R 1.61, T 1.65, A 2.09, H 2.13
W14: T 3.22, P 3.31, A 1.8, Y 2.11, K 2.54, N 2.96, F 3.1, I 2.21, L 1.57
W4: E 1.91, T 1.47, Y 2.37, C 2.77, H 2.49, L 1.67, G 3.48, P 3.99
V19: S 2.36, D 1.52, C 1.56, R 2.36, N 3, Y 3.2, T 2.79, G 2.58, M 3.54, Q 1.91, P 1.35, F 3.22, E 2.23, K 1.67
Q20: H 2.97, K 2.83, C 2.17, A 1.57, V 2.08, W 1.69, T 1.24, Y 3.08, N 2.4, P 3.22
Q18: K 1.42, M 3.17, C 3.51, P 2.52, D 2.22, V 4.68, S 2.14, N 1.71, H 2.68, T 1.57, I 2.59
H24: N 3.06, D 1.97, A 1.84, R 3.52, W 1.61, K 1.83, I 3.64, V 4.55, F 3.12
S9: Q 2.35, N 2.39, T 4.83, K 1.72, L 2.59, H 3.52, I 2.15, F 2.75, V 1.64, M 3.56, C 2.09
R12: P 3.2, W 2.71, D 2.1, Q 3.2, T 3.84, N 1.91, K 1.9, C 3.76
S13: R 2.27, Y 3.16, W 3.02, Q 2.43, P 2.41, D 2.27, N 3.74, F 1.54, L 1.69
A15: K 2.12, V 1.07, N 4.46, Y 2.87, I 1.53, D 1.24, E 1.6, H 1.83, C 2.98, F 2
G3: H 1.14, P 3.37, N 2.75, A 2.75
